Results reported in patent US20090068207A1, “Compositions Containing Beta 2-Glycoprotein I-Derived Peptides for the Prevention and/or Treatment of Vascular Disease” (Vascular Biogenics Ltd., priority 2005, published 2009).

Legend:
Format in all cases: in vivo
LDL-RD mice [1] = test: Aortic sinus lesion area after nasal tolerance induction, Western diet; conditions: End, mean ± S.E
Method: Nasal Tolerance: Nasal tolerance was induced by intranasal administration of oxidized LDL, β2GPI, β2GPI-derived peptides or HSP65, in a total volume of 10 μl PBS. Intranasal administration was performed on mildly sedated mice (12-16 weeks old), each mouse receiving 3 doses of antigen per dose, in the indicated concentrations, every other day. Atherogenesis was induced by 5 weeks of a Western diet initiated on the day following the last intranasal administration, or assessed (in Apo E KO mice) after 8 weeks on a chow diet. Controls received equal amounts of BSA and/or PBS, as indicated, in an identical regimen. Plasma was obtained for assessment of cholesterol and triglyceride levels from all mice, and the mice were sacrificed for evaluation of atherosclerosis, as described hereinbelow, after 5 weeks Western diet, or (in Apo E KO mice) after 8 weeks on a chow diet.
Assessment of Atherosclerosis: Quantification of atherosclerotic fatty streak lesions was done by calculating the lesion size in the aortic sinus as previously described (16) and by calculating the lesion size in the aorta. Briefly, after perfusion with saline Tris EDTA, the heart and the aorta were removed from the animals and the peripheral fat cleaned carefully. The upper section of the heart was embedded in OCT medium (10.24% w/w polyvinyl alcohol; 4.26% w/w polyethylene glycol; 85.50% w/w nonreactive ingredients) and frozen. Every other section (10 μm thick) throughout the aortic sinus (400 μm) was taken for analysis. The distal portion of the aortic sinus was recognized by the three valve cusps that are the junctions of the aorta to the heart. Sections were evaluated for fatty streak lesions after processing and staining with oil-red O, according to Paigen et al (Atherosclerosis, 1987; 68:231-40). Lesion areas per section were scored on a grid (17) by an observer counting unidentified, numbered specimens. The aorta was dissected from the heart and surrounding adventitious tissue was removed. Fixation of the aorta and Sudan staining of the vessels were performed as previously described (21).
Mice were bled prior to feeding (Time 0) and at the conclusion of the experiment (End) for determination of lipid profile. Atherosclerosis was assessed in heart and aorta as described above, 8 weeks after the last feeding. Mice were weighed every 2 weeks during the experiment. All mice were fed water ad libitum and a normal chow-diet containing 4.5% fat by weight (0.02% cholesterol), up to the final antigen exposure, and then a “Western” diet until sacrifice.
Thus, nasal exposure to a low dose and an exceedingly low dose of recombinant human HSP 65 were compared for their effectiveness in suppressing atherogenesis in LDL-RD mice. 58 male 12-16 week old LDL-RD mice were divided into 4 groups.

ApoE-KO mice = test: Aortic sinus lesion area after oral administration in ApoE-KO mice; conditions: End t = 16 wks; oral 50 μg/mouse; ApoE-KO mice; mean ± S.E
From the text: (§1) Assessment of Atherosclerosis: Quantification of atherosclerotic fatty streak lesions was done by calculating the lesion size in the aortic sinus as previously described (16) and by calculating the lesion size in the aorta. Briefly, after perfusion with saline Tris EDTA, the heart and the aorta were removed from the animals and the peripheral fat cleaned carefully. The upper section of the heart was embedded in OCT medium (10.24% w/w polyvinyl alcohol; 4.26% w/w polyethylene glycol; 85.50% w/w nonreactive ingredients) and frozen. Every other section (10 μm thick) throughout the aortic sinus (400 μm) was taken for analysis. The distal portion of the aortic sinus was recognized by the three valve cusps that are the junctions of the aorta to the heart. […] Lesion areas per section were scored on a grid (17) by an observer counting unidentified, numbered specimens. The aorta was dissected from the heart and surrounding adventitious tissue was removed. Fixation of the aorta and Sudan staining of the vessels were performed as previously described (21).
In order to determine the protective effect of mucosal administration of β2GPI on development of atherosclerosis, adult ApoE-KO mice were treated with oral administration of human β2GPI. 20 week-old male ApoE-KO mice, having advanced atherosclerotic lesions were treated monthly with human β2GPI (50 μg/dose) or PBS (0.2 ml) in 5 oral administrations (by gavage, as described hereinabove) given every other day, for four months. Lesion area calculated from cryosections of the aortic sinus were compared between control untreated 20 week old mice, and mice following 16 weeks oral administration of β2GPI or PBS.
10-11 week-old male ApoE-KO mice, having early atherosclerotic lesions, were treated with 5 oral administrations (by gavage, as described hereinabove) given every other day of human β2GPI peptide S-4 (SEQ ID NO: 14) or human β2GPI (50 μg/dose) or PBS (0.2 ml). Lesion areas calculated from cryosections of the aortic sinus were compared between control untreated, human β2GPI treated and S-4 human β2GPI-derived peptide treated mice at 8 weeks following the last oral administration of the antigens, or of PBS.

LDL-RD mice [2] = test: Aortic sinus lesion area after oral administration, Western diet; conditions: for Aortic sinus lesion (μm^2): End, mean ± S.E
Method: Oral Tolerance: For comparison, oral tolerance to plaque-associated molecules was induced by feeding […] of antigen every other day (for a detailed account of induction of oral tolerance, see U.S. patent application Ser. No. 09/806,400 to Shoenfeld et al filed Sep. 30, 1999), in a similar regimen to the nasal tolerance. LDL-RD mice were fed by a nasogastric tube, five doses (every other day) of human or bovine β2GPI in PBS in two different concentrations (500 and 50 μg/dose).
Oral tolerance to β2GPI-derived peptides, alone or in combination was induced by feeding 100 μg of the peptides (prepared in PBS, 0.2 ml), as detailed hereinabove, every other day for a total of 5 doses of 100 μg. One day following the last feeding, all mice were switched from chow-diet to an atherogenic “Western” diet and sacrificed five weeks later.
as §1
LDL-receptor deficient (LDL-RD; LDLR −/−) mice created on a C57BL/6 background develop accelerated atherosclerosis when fed a high cholesterol diet, but not when fed a regular chow diet. In order to determine whether mucosal administration of the plaque antigen β2GPI could suppress atherogenic processes, LDL-RD mice were fed low, oral tolerance inducing doses of human and bovine β2GPI, and the assessed for alterations in response to diet.

B1: HSP65: recombinant human HSP 65 according to Example 2 and Table 2 (protein, UniProt P10809 27-573, looked up)
60 kDa heat shock protein, …: AKDVKFGADARALMLQGVDLLADAVAVTMGPKGRTVIIEQSWGSPKVTKDGVTVAKSIDLKDKYKNIGAKLVQDVANNTNEEAGDGTTTATVLARSIAKEGFEKISKGANPVEIRRGVMLAVDAVIAELKKQSKPVTTPEEIAQVATISANGDKEIGNIISDAMKKVGRKGVITVKDGKTLNDELEIIEGMKFDRGYISPYFINTSKGQKCEFQDAYVLLSEKKISSIQSIVPALEIANAHRKPLVIIAEDVDGEALSTLVLNRLKVGLQVVAVKAPGFGDNRKNQLKDMAIATGGAVFGEEGLTLNLEDVQPHDLGKVGEVIVTKDDAMLLKGKGDKAQIEKRIQEIIEQLDVTTSEYEKEKLNERLAKLSDGVAVLKVGGTSDVEVNEKKDRVTDALNATRAAVEEGIVLGGGCALLRCIPALDSLTPANEDQKIGIEIIKRTLKIPAMTIAKNAGVEGSLIVEKIMQSSSEVGYDAMAGDFVNMVEKGIIDPTKVVRTALLDAAGVASLLTTAEVVVTEIPKEEKDPGMGAMGGMGGGMGGGMF
Q: How did the “Aortic sinus lesion (μm^2)” value (LDL-RD mice [1]; intranasal 1 μg/mouse) turn out when B1 was run?
A: The value was 17109 ± 2053 μm^2.

Q: And the “Aortic sinus lesion (μm^2)” value (LDL-RD mice [1]; intranasal 10 μg/mouse)?
A: Its value is 22292 ± 2691 μm^2.

B2: B-β2GPI: head of Table 5; text and footnote say human β2GPI, 50 μg/mouse orally (protein, UniProt P02749 20-345, looked up)
Beta-2-glycoprotein 1: GRTCPKPDDLPFSTVVPLKTFYEPGEEITYSCKPGYVSRGGMRKFICPLTGLWPINTLKCTPRVCPFAGILENGAVRYTTFEYPNTISFSCNTGFYLNGADSAKCTEEGKWSPELPVCAPIICPPPSIPTFATLRVYKPSAGNNSLYRDTAVFECLPQHAMFGNDTITCTTHGNWTKLPECREVKCPFPSRPDNGFVNYPAKPTLYYKDKATFGCHDGYSLDGPEEIECTKLGNWSAMPSCKASCKVPVKKATVVYQGERVKIQEKFKNGMLHGDKVSFFCKNKEKKCSYTEDAQCIDGTIEVPKCFKEHSSLAFWKTDASDVKPC
Q: For B2, which “Aortic sinus lesion (μm^2)” value (ApoE-KO mice) is on record?
A: The value was 221042 ± 14472 μm^2.

B3: B-β2 GPI: bovine beta2-glycoprotein I purified from serum (protein, UniProt P17690 20-345, looked up)
Beta-2-glycoprotein 1: GRTCPKPDELPFSTVVPLKRTYEPGEQIVFSCQPGYVSRGGIRRFTCPLTGLWPINTLKCMPRVCPFAGILENGTVRYTTFEYPNTISFSCHTGFYLKGASSAKCTEEGKWSPDLPVCAPITCPPPPIPKFASLSVYKPLAGNNSFYGSKAVFKCLPHHAMFGNDTVTCTEHGNWTQLPECREVRCPFPSRPDNGFVNHPANPVLYYKDTATFGCHETYSLDGPEEVECSKFGNWSAQPSCKASCKLSIKRATVIYEGERVAIQNKFKNGMLHGQKVSFFCKHKEKKCSYTEDAQCIDGTIEIPKCFKEHSSLAFWKTDASDVKPC
Q: For B3, which “Aortic sinus lesion (μm^2)” value (LDL-RD mice [2]; oral 50 μg) is on record?
A: Its value is 27422 ± 3007 μm^2.

Q: And the “Aortic sinus lesion (μm^2)” value (LDL-RD mice [2]; oral 500 μg)?
A: Its value is 20781 ± 2290 μm^2.

Q: And the “reduction of atherosclerosis as compared with BSA-fed controls” value (LDL-RD mice [2]; oral 50 μg/dose)?
A: Its value is 57%.

Q: And the “reduction of atherosclerosis as compared with BSA-fed controls” value (LDL-RD mice [2]; oral 500 μg/dose)?
A: The value was 43%.
